Patent US20130336983A1 (TRUSTEES OF DARTMOUTH COLLEGE, published 2013)

Target: the molecule itself
Test: NMR spectroscopy of the 20-mer

LHHILMHLTEKAQEVTRKYQ [20-mer representing residues 120-139 of S14 domain III]: binds.
